Experimental findings from patent US20250051455A1 (Hoffmann-La Roche, published 2025) are described below.

The experiment addresses T1, recombinant soluble human HLA-G β2M MHC class I complex, monomer (human).
T1 construct: His tagged; biotinylated where coated on streptavidin plates, non-biotinylated in SPR; also called HLA-G-0003; wt HLA-G (monomer)
The experiment is described as follows: SPR Biacore T200, antibody captured via anti-Fc, HLA-G monomer as analyte, 25 C. The protocol:
Binding kinetics of anti-HLA-G antibodies to human HLA-G, human HLA-G degrafted and human HLA-A2 were investigated by surface plasmon resonance using a BIACORE T200 instrument (GE Healthcare). All experiments were performed at 25° C. using PBS Buffer (pH 7.4+0.05% Tween20) as running buffer and PBS Buffer (+0.1% BSA) as dilution buffer. Anti-human Fc (JIR009-005-098, Jackson) or anti-rat Fc (JIR112-005-071, Jackson) or anti-Mouse Fc (JIR115-005-071, Jackson) antibodies were immobilized on a Series S CM5 Sensor Chip (GE Healthcare) at pH 5.0 by using an amine coupling kit supplied by GE Healthcare. Anti-HLA-G antibodies were captured on the surface leading to a capturing response of 50-200 RU. HLA-G molecules were injected for 180 s at 30 μl/min with concentrations from 2.5 up to 800 nM (2×1:2 and 4×1:3 dilution series) onto the surface (association phase). The dissociation phase was monitored for 300-600 sec by washing with running buffer. The surface was regenerated by injecting H3PO4 (0,85%) for 60+30 seconds for anti-human Fc capturing antibodies, glycine pH1,5 for 60 seconds and glycine pH2,0 for 60 seconds for anti-rat Fc capturing antibodies, H3PO4 (0,85%) for 80+60 seconds for anti-mouse Fc capturing antibodies. Bulk refractive index differences were corrected by subtracting the response obtained from a mock surface. Blank injections were subtracted (double referencing). The derived curves were fitted to a 1:1 Langmuir binding model using the BIAevaluation software.
The above table summarizes the antibody affinities and t½ values against wt and degrafted HLA-G as assessed by Surface plasmon resonance (Biacore) analysis. Binding kinetics of anti-HLA-G antibodies to human HLA-G and human HLA-G degrafted were investigated by surface plasmon resonance using a BIACORE T200 instrument (GE Healthcare). All experiments were performed at 25° C. using PBS Buffer (pH 7.4+0.05% Tween20) as running buffer and PBS Buffer (+0.1% BSA) as dilution buffer. Anti-human Fc (JIR009-005-098, Jackson) or anti-rat Fc (JIR112-005-071, Jackson) or anti-Mouse Fc (JIR115-005-071, Jackson) antibodies were immobilized on a Series S CM5 Sensor Chip (GE Healthcare) at pH 5.0 by using an amine coupling kit supplied by GE Healthcare.
(In general: In SPR one partner is held on a chip, and binding of the other changes the refractive index at the surface.)

B1: HLA-G-0031-0104 (humanized variant of HLA-G-0031) (antibody, V domains shown)
VH: QVQLVQSGAEVKKPGASVKVSCKASGYTFTDYWVSWVRQAPGQRLEWMGEISPNSGASNFDENFQGRVTITRDTSASTAYMELSSLRSEDTAVYYCTRSSHGSFRWFAYWGQGTLVTVSS
VL: DIQMTQSPSSLSASVGDRVTITCRASSSVSSNHLHWYQQKPGKAPKFLIYSTSQRASGVPSRFSGSGSGTEFTLTISSLQPEDFATYYCQQGSSNPYTFGQGTKLEIK
notes: Humanized variant (VH framework IGHV1-3, VL framework IGKV1-17 with back-mutation R46F, Kabat)
For B1, the Kd was determined as 24 nM, the koff worked out at 0.002 s⁻¹, the kon stood at 83000 M⁻¹ s⁻¹ and the “t 1/2” value amounted to 6 min.

What is called Kd is the concentration at which binding is half-saturated. A word on the koff: it is a measure of how fast the partners let go of each other. The kon is a measure of how fast the partners come together.
